In the supplement of paper PMC10126150:
± gives the standard deviation of the averaged measurements.

Test system: ATP
Assay: switch fluorescence ratio, 500 uM ATP over buffer (Cy3 cluster intensity, sum of 5 cycles each) (fold (ratio)); higher = stronger signal-on switching upon ATP binding; sequences stand for … in TCGTCGGCAGCGTCAGATGTGTATAAGAGACAGTTTTTTTTTTTTTTTTTTTTTTTTT…TC
Conditions: aptamer strand: ATP DNA aptamer (quencher-CACCTGGGGGAGTATTGCGGAGGAAGG + anchor), 100 nM annealed; ATP concentration: 500 uM
In short: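 Cy3-labelled switching-strand clusters on a modified Illumina MiSeq flow-cell were annealed to 100 nM quencher-labelled ATP aptamer, imaged in selection buffer, then imaged after 15 min with 500 uM ATP at 22 °C. Five buffer/ATP cycles ran, with NaOH stripping and re-annealing between them. The fluorescence ratio is summed target-cycle over summed buffer-cycle Cy3 intensity per cluster, averaged per switch-domain sequence. Clusters outside 100-1000 RFU were excluded.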
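Further: ATP exposure 15 min at 22 °C before imaging.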

Row | Sequence | switch fluorescence ratio
1 | GGGGATGCTC | 1.03 ± 0.018
2 | GGTACTATT | 0.991 ± 0.04
3 | GAATAAATAG | 1 ± 0.024
4 | CACTCAGGGA | 1.04 ± 0.046
5 | GACTAAAGTA | 1.05 ± 0.074
6 | AGGTTATATT | 1.01 ± 0.024
7 | GGGGTAAACA | 0.99 ± 0.038
8 | CCATGCCACA | 1.05 ± 0.029
9 | AGCCATGTGA | 1.01 ± 0.011
10 | TTTTGGCGGG | 0.983 ± 0.022
11 | ATTCTCAGTG | 1.01 ± 0.038
12 | TGTGATGATG | 0.947 ± 0.036
13 | TAAAGACCGA | 1.08 ± 0.048
14 | TTTCGGAGAG | 0.989 ± 0.037
15 | ATTTTTCTAG | 1.01 ± 0.03
16 | AAGGCGGGTG | 1.01 ± 0.015
17 | TGTTGTGGGA | 0.979 ± 0.019
18 | TAGGGGGGAA | 1 ± 0.023
19 | TTGATAGTAA | 1.04 ± 0.09
20 | ATTGTTTTGA | 0.9818 ± 0.0088
21 | CAAAAATGTT | 1.17 ± 0.19
22 | TCTTGAACTT | 1 ± 0.018
23 | GTGGTGGGTA | 0.947 ± 0.073
24 | GAAACAATTG | 0.9897 ± 0.0075
25 | TTTCAAACCC | 0.995 ± 0.013

Row | Sequence | switch fluorescence ratio
26 | CGTGCCCGTG | 1 ± 0.017
27 | TCGGTAGTG | 0.985 ± 0.028
28 | GGGAGGATGT | 0.997 ± 0.022
29 | ATGGCAGCTG | 0.9949 ± 0.0095
30 | CCCTGTGAAA | 0.975 ± 0.028
31 | AGTAAGATAA | 0.986 ± 0.058
32 | ATTGTGTGGG | 0.999 ± 0.036
33 | ATTGGTAGTT | 0.9687 ± 0.0067
34 | AGCTGGGCTC | 1.07 ± 0.016
35 | TTGTTTGGAC | 1.03 ± 0.013
36 | GTAGAGAGGG | 0.992 ± 0.053
37 | AATTGTTATG | 0.999 ± 0.039
38 | ATTATGCTTT | 1 ± 0.021
39 | ATACGTAGTC | 1.07 ± 0.014
40 | TTTCCGGTTT | 1.6 ± 1.1
41 | TAAGAAGATT | 0.986 ± 0.024
42 | TGAGGTTCGA | 0.98 ± 0.03
43 | TTAAAGGGCG | 0.976 ± 0.046
44 | GTAGTATTAT | 0.991 ± 0.035
45 | TTTGTTTTGG | 1.03 ± 0.025
46 | TTACCTCCGT | 2.19 ± 0.14
47 | AAACTGCTCC | 1.517 ± 0.012
48 | ATAATTAATT | 0.958 ± 0.03
49 | GGGGAATGGT | 1.01 ± 0.074
50 | ATAGTTATTT | 0.989 ± 0.014

Row | Sequence | switch fluorescence ratio
51 | TTTCGAAATG | 1.01 ± 0.027
52 | CTCAGCGGGT | 1.49 ± 0.68
53 | TTTGGGCGAA | 1.002 ± 0.0068
54 | TTTGCAGAAA | 0.996 ± 0.018
55 | TTGAAGGGGA | 0.9736 ± 0.0039
56 | AAGACTTCTT | 0.98673 ± 0.00038
57 | TGGGTGCGG | 0.984 ± 0.026
58 | CTCCATTGAT | 1.01 ± 0.042
59 | TTGTTCGGCC | 0.992 ± 0.035
60 | GGTTTCAGCA | 1.01 ± 0.042
61 | GTTTAGATG | 0.989 ± 0.022
62 | GGTTTTTGTT | 0.991 ± 0.039
63 | CAGACGTCGA | 1.05 ± 0.066
64 | CGGCTTAATA | 1.02 ± 0.019
65 | TAGACGAAAA | 1.03 ± 0.024
66 | ATATTGTAAC | 0.98 ± 0.013
67 | AAGGATTAAC | 0.985 ± 0.032
68 | GCGGTAGGG | 1.02 ± 0.0055
69 | GTAGTATCAG | 1 ± 0.017
70 | AGTTATAAAG | 0.986 ± 0.037
71 | GGTGGTTGTT | 1.01 ± 0.043
72 | GACTACTAGC | 1.05 ± 0.045
73 | TATGTATCTA | 1.02 ± 0.043
74 | AGGGTACAGT | 1.04 ± 0.055
75 | CGGTTGTCGG | 0.997 ± 0.013

Row | Sequence | switch fluorescence ratio
76 | GGAGTTGATT | 0.9808 ± 0.0015
77 | CTGGTCGCGT | 0.9873 ± 0.0081
78 | AACGTGAGTG | 1.02 ± 0.011
79 | GAGTGCTAAA | 1.01 ± 0.0053
80 | TCGTACGTGG | 0.998 ± 0.016
81 | TGGACTAGGG | 0.975 ± 0.049
82 | TTTCAGAACT | 1.0027 ± 0.00088
83 | CCGGAGGAGA | 1.06 ± 0.017
84 | AATTAGCAAG | 1.04 ± 0.018
85 | ATAGGAAGGA | 1.04 ± 0.056
86 | AAAGTTCCTA | 0.968 ± 0.033
87 | TTCGAAAAAA | 1.06 ± 0.14
88 | ATCTTTATGT | 1.03 ± 0.017
89 | ATTCGGTAGT | 1 ± 0.013
90 | TTTTCGGCCC | 1.01 ± 0.026
91 | TTTATACCTA | 1.03 ± 0.023
92 | TGCGGGGCTT | 0.997 ± 0.048
93 | ATCCAGGGGA | 0.989 ± 0.06
94 | TATCACACTG | 1.09 ± 0.12
95 | CGCTACGTGT | 1.02 ± 0.038
96 | TAGGAGGGGC | 0.958 ± 0.12
97 | AGATGAGGGC | 1.04 ± 0.022
98 | AGAGGCAAGA | 1.16 ± 0.028
99 | ATGTGCGGGC | 1.025 ± 0.0063
100 | TTTCAATGGA | 0.974 ± 0.018

Row | Sequence | switch fluorescence ratio
101 | GATAGAAGGT | 1.04 ± 0.056
102 | CGGGGTATTC | 0.964 ± 0.078
103 | CCACAGTGTT | 1.61 ± 0.1
104 | TTGGATCCGG | 0.98 ± 0.039
105 | TTATTTCTTG | 0.994 ± 0.046
106 | TCAGGCTGTT | 0.968 ± 0.04
107 | CATTGACCGC | 1.09 ± 0.014
108 | ATTGAATGGT | 1.006 ± 0.0027
109 | AGTTGAACCC | 0.9872 ± 0.0016
110 | ACCCAAAATT | 1.05 ± 0.033
111 | ACAAGGATA | 1.006 ± 0.0077
112 | TAGATTTT | 0.9953 ± 0.007
113 | GTGGGGGATT | 0.996 ± 0.03
114 | GGGTACCGTA | 0.959 ± 0.068
115 | GGTTCCGGTA | 0.9998 ± 0.00095
116 | TCGGGTCCAT | 1 ± 0.026
117 | TTACAGGGAG | 1.02 ± 0.01
118 | ATCCTCGTTG | 1.02 ± 0.03
119 | TTTCAGTCTA | 1.03 ± 0.024
120 | GATGTTGATT | 0.997 ± 0.014
121 | GGGTTGTAGC | 0.9909 ± 0.0027
122 | ACATGATCTC | 0.993 ± 0.021
123 | TTAGACAAGG | 0.95377 ± 0.00078
124 | AAGGTAACGG | 0.972 ± 0.038
125 | GGGGGATGCC | 1.15 ± 0.22

Row | Sequence | switch fluorescence ratio
126 | GAGCCATTTT | 0.991 ± 0.041
127 | ATAAGGAGAT | 0.9759 ± 0.0042
128 | CCTGGGGATT | 1.07 ± 0.18
129 | GGATATGTGT | 0.991 ± 0.016
130 | TTGGGTTAGG | 0.979 ± 0.021
131 | CAATACTTAT | 1.01 ± 0.019
132 | TATAATGCGC | 0.995 ± 0.034
133 | GGATTAGTCA | 0.9973 ± 0.0047
134 | GAGCGGGGGG | 0.969 ± 0.022
135 | AGGGGGTGTG | 0.989 ± 0.043
136 | CAGCTAGGTG | 1.54 ± 0.029
137 | TTGGGTTTGT | 0.997 ± 0.017
138 | TGGGGTCAAA | 0.995 ± 0.036
139 | AGAGGCAAGG | 1.0062 ± 0.0002
140 | CGTTGGCACG | 0.997 ± 0.04
141 | GGTGGAGTCG | 1.009 ± 0.0085
142 | CCTTAGGGGG | 1.24 ± 0.33
143 | AGGTTCATCT | 1.011 ± 0.0057
144 | AAGGTTGTAA | 0.985 ± 0.021
145 | AGGACTTTAG | 0.943 ± 0.091
146 | GGGGGGCGAC | 1.02 ± 0.019
147 | TGTTTAAATG | 1.01 ± 0.026
148 | TTATGGTTGG | 0.995 ± 0.012
149 | CATGGTCTCA | 1.017 ± 0.0017
150 | AATTATTGTT | 0.996 ± 0.017

Row | Sequence | switch fluorescence ratio
151 | GTCGTGTGGT | 0.99 ± 0.045
152 | AAATGGAATG | 0.983 ± 0.046
153 | TGCATGGGAG | 1.001 ± 0.0039
154 | TTGTTCGACT | 1.02 ± 0.016
155 | AGGTTGCCGG | 1.04 ± 0.046
156 | TATTGATAGC | 1.014 ± 0.0083
157 | AGCAGTTTTT | 0.996 ± 0.028
158 | TTAGAGAGCG | 1.018 ± 0.0096
159 | GGTAATTTGG | 1 ± 0.023
160 | TTGTGTGTCA | 0.994 ± 0.022
161 | TTTTTTTGTG | 0.984 ± 0.019
162 | CGCAATGGGG | 2.98 ± 0.53
163 | CGGGGTAGTG | 0.999 ± 0.02
164 | TATGTAGTCG | 1.02 ± 0.038
165 | CCGGGGTTAT | 1.119 ± 0.0047
166 | CGTGGTGGGA | 0.9737 ± 0.0088
167 | GGTCATTTAG | 0.994 ± 0.031
168 | TTTTTGGGTG | 1.03 ± 0.058
169 | GCTACACGAA | 1.04 ± 0.027
170 | CAGCTAAAGG | 1.02 ± 0.03
171 | GCCGGTTATC | 1 ± 0.017
172 | CGGCAGCCGG | 1.01 ± 0.062
173 | ATCGCGTGTG | 1.009 ± 0.0062
174 | TTTTGGATGT | 0.984 ± 0.048
175 | TATATTATGA | 0.999 ± 0.023

Row | Sequence | switch fluorescence ratio
176 | GAAGGGGAAG | 0.998 ± 0.0043
177 | AATAGTGGGT | 1 ± 0.013
178 | CTAAGGCGGG | 1.013 ± 0.0072
179 | GCATGCAGGA | 1.01 ± 0.02
180 | TTAAGATGGG | 0.996 ± 0.025
181 | TTTGAGGTGC | 1.06 ± 0.031
182 | TGAGCTGGGG | 0.996 ± 0.02
183 | GGTGGGGT | 1.01 ± 0.0055
184 | TAAAATGGAC | 1.03 ± 0.028
185 | TTAAAGAGAA | 1 ± 0.013
186 | TCGGGAGCAG | 1.03 ± 0.054
187 | AGCATGGGAG | 0.991 ± 0.034
188 | TTTGATAGGA | 0.975 ± 0.02
189 | AACAGTTTTT | 0.989 ± 0.044
190 | CGAATTTGCC | 1.01 ± 0.065
191 | TTGTGAATTC | 0.977 ± 0.043
192 | TCATTGGGG | 0.974 ± 0.029
193 | CGTTAGATGG | 1.01 ± 0.011
194 | CGTGCAAATT | 0.985 ± 0.026
195 | TTTAAAAAAC | 1 ± 0.026
196 | TTCGGTTGGG | 0.986 ± 0.029
197 | TGAGTGGGGA | 1 ± 0.013
198 | ATTATAAGGG | 1.02 ± 0.056
199 | TTTGTATTCC | 0.991 ± 0.1
200 | TTTTTGGACG | 0.969 ± 0.081
